Here are results for three molecules from patent US20070073040A1, “Anti-obesity polypeptides” (Yonsei University, priority 2001, published 2007).

Values joined by “and” are separate entries in the source; they are usually repeats but may differ in a detail not shown here. Equal values may be shown once.

For test [1] the following is noted: clinical test, cited from earlier work.
Test [2] is described as follows: Body weight of ZDF rats with nonfunctional Leptin receptor treated with SynLeptin polypeptides. It is filed as in vivo, rat. The note with it: 12-week-old ZDF rats; injected two times every two weeks into hypoderm; after about 30 days; saline control 8.5% increase. The method, then:
FIG. 2 illustrates weigh loss when SynLeptin-1 or 2 polypeptide was injected two times every two weeks into the hypoderm of 12-week-old ZFD rats with non-functional Leptin receptor.
(§1) 4 white rabbits with 1.2 kg body weight were divided into a control group and an experimental group having two rabbits, respectively. The purified SynLeptin-1 or -2 protein (500-700 μg or saline was mixed with Adjuvant 2 ml (Sigma), and then injected into 4 different parts of the rabbit hypoderm. After 2 weeks, an equivalent amount of the protein-Adjuvant mixture was injected, and then third injection was performed after 2 weeks. Thereafter, body weight loss was measured after 10 days. The result was as follows. The body weight of the experimental group treated with SynLeptin-1 was 1.8 kg and 2.08 kg, respectively (average 1.94 kg), while the body weight of the control group was 2.5 kg and 2.45 kg, respectively (average 2.48 kg). […] Also we treated the ZDF rats with nonfunctional Leptin receptor gene with SynLeptin-1 or -2 polypeptides for 30 days (FIG. 2).

The test system of test [3] is adipose tissue. In words: Autopsy and pathological examination of experimental rabbits. It is filed as in vivo, rabbit. The note with it: polypeptide-Adjuvant mixture injected three times into hypoderm every two weeks, versus saline-Adjuvant. Here is the method: In FIG. 3A, arrows indicate distribution of adipose tissue in various organs in the test rabbit that SynLeptin-2 polypeptide-Adjuvant mixture was injected three times into the hypoderm every two weeks. In FIG. 3B, arrows indicate distribution of adipose tissue in various organs injected with saline-Adjuvant mixture three times into the hypoderm every two weeks.
We analyzed the reasons for the decrease in body weight by autopsy and pathological examinations. […] When the rabbits were sacrificed and autopsy was carried out, no pathological abnormali in their organs was observed. However, remarkable reduction of fat mass not only in abdominal and subcutaneous adipose tissues but also tissues surrounding various organs was evident.

Test [4] is described as follows: Body weight of white rabbits after subcutaneous injection of protein-Adjuvant mixture. The class given is in vivo, rabbit. The note with it: 10 days after third injection. The method, then:
as §1

Take “Leptin: 16 kDa ob polypeptide hormone synthesized in adipose tissue, regulating body weight”: the “weight response upon Leptin treatment (other obese people)” value in test [1] (other obese people) is “did not lost weight”. The body weight lost in test [1] (some obese people) is listed as 7.1 kg.

B1: SynLeptin-2: Tat polypeptide of 86 amino acids from N-terminus of Tat, expressed from pGEX4T-3-SynLeptin-2 (protein)
chain: MEPVDPRLEPWKHPGSQPKTACTNCYCKKCCFHCQVCFMTKALGISYGRKKRRQRRRAHQNSQTHQASLSKQPTSQSRGDPTGPKE
modifications: 86 amino acid Tat mutant
notes: Tat polypeptide of 86 amino acids from N-terminus of Tat, expressed from pGEX4T-3-SynLeptin-2
As for B1, the “weight loss (decrease of body weight)” value in test [2] was determined as 4.3%. Also, the “fat / adipose tissue at autopsy” value in test [3] was “markedly reduced fat in various tissues including adipose tissue”.

B2: SynLeptin-1: Tat polypeptide fragment, 71 (b9: 72) amino acids from N-terminus of Tat, expressed from pGEX4T-3-SynLeptin-1 (protein)
chain: MEPVNPSLEPWKHPGSQPKTACTNCYCAKCCFHCQVCFITKALGISYGRAKRRQRRRPPQGSQTHQVSLSK
modifications: 71 amino acid Tat mutant
For B2, the “body weight of individual rabbit of the experimental group” value in test [4] (rabbits, starting body weight 1.2 kg, control 2.5 and 2.45 kg) is 1.8 kg and 2.08 kg. Moreover, the “average body weight of the experimental group” value in test [4] (two rabbits, control average 2.48 kg) is 1.94 kg. This molecule also showed a weight increase in test [2] of 3.5%.
